Legend:
[1] = molecular target: His6-OAZ-GSY-SPM-Ctag (human | Neisseria meningitidis serogroup B (strain MC58)) (UniProt Q9JYV5); assay: cross-linking; NeissLock: Ca2+-induced aspartic anhydride on OAZ reacts with the docked partner; purified proteins mixed at 10 µM each or as indicated (AZI 2.5 µM each; Fig. 4b 0.5 µM each; 30 µM ODC with 10 µM OAZ-Y-SPM), 37 °C, HBS pH 7.4 with 2 mM TCEP, 10 mM CaCl2 unless varied (pH 6.5-8.5, 0.5-10 mM Ca2+, TBS, lyophilised probe); SDS-PAGE with Coomassie, intact ESI-MS, tryptic LC-MS/MS
[2] = molecular target: AviTag-His6-OAZ-GSY-SPM-Ctag (wt, with C175A) (human | Neisseria meningitidis serogroup B (strain MC58)) (UniProt Q9JYV5); assay: SPR; Biacore T200; biotinylated AviTag-OAZ-GSY-SPM variants immobilised with the Biotin CAPture Kit, ODC flowed over; HBS with 2 mM TCEP and 0.02 mM PLP; 25 °C; 1:1 binding model

B1: His6-ODC-Ctag (human Ornithine Decarboxylase) (enzyme)
chain: NNFGNEEFDCHFLDEGFTAKDILDQKINEVSSSDDKDAFYVADLGDILKKHLRWLKALPRVTPFYAVKCNDSKAIVKTLAATGTGFDCASKTEIQLVQSLGVPPERIIYANPCKQVSQIKYAANNGVQMMTFDSEVELMKVARAHPKAKLVLRIATDDSKAVCRLSVKFGATLRTSRLLLERAKELNIDVVGVSFHVGSGCTDPETFVQAISDARCVFDMGAEVGFSMYLLDIGGGFPGSEDVKLKFEEITGVINPALDKYFPSDSGVRIIAEPGRYYVASAFTLAVNIIAKKIVLKEQTGSDDEDESSEQTFMYYVNDGVYGSFNCILYDHAHVKPLLQKRPKPDEKYYSSSIWGPTCDGLDRIVERCDLPEMHVGDWMLFENMGAYTVAAASTFNGFQRPTIYYVMSGPAWQLMQQFQ
Q: Which results are given for B1?
A: coupling yield after 2 h, lyophilized OAZ-GSY-SPM [1]: 51%; coupling yield after 2 h, untreated control [1]: 48%; coupling yield at 0.5 mM Ca2+ compared to 10 mM Ca2+ after 2 h [1]: 78%; coupling yield in TBS compared to HBS after 2 h [1]: 95%; half-time of the conjugation reaction at pH 7.0 [1]: < 2 min; Kd [2]: 120 nM

B2: ODC ΔN ΔC 4KR with K92 re-introduced (enzyme)
chain: DCHFLDEGFTAKDILDQKINEVSSSDDKDAFYVADLGDILKKHLRWLKALPRVTPFYAVKCNDSRAIVRTLAATGTGFDCASKTEIQLVQSLGVPPERIIYANPCKQVSQIRYAANNGVQMMTFDSEVELMKVARAHPKAKLVLRIATDDSKAVCRLSVKFGATLRTSRLLLERAKELNIDVVGVSFHVGSGCTDPETFVQAISDARCVFDMGAEVGFSMYLLDIGGGFPGSEDVKLKFEEITGVINPALDKYFPSDSGVRIIAEPGRYYVASAFTLAVNIIAKKIVLKEQTGSDDEDESSEQTFMYYVNDGVYGSFNCILYDHAHVKPLLQKRPKPDEKYYSSSIWGPTCDGLDRIVERCDLPEMHVGDWMLFENMGAYTVAAASTFNGFQRPTIYYVMSGPAWQLMQQFQ
Q: With B2 as the binder, how does the conjugation compared to wild-type ODC [1] read?
A: 89%
